Here are results for three molecules from patent publication US20240000838A1 (SIMCERE INNOVATION, published 2024).

A value given as a limit tells only on which side of the number the result lay.

For assay [1], the target named is T1, Human CD5 Protein, HisTag (AcroBiosystems, Cat #CD5-H52H5) (human, UniProt P06127 25-372).
T1 construct: Bought staining reagent, detected with His-APC antibody; also called CD5 antigen; APC labeled CD5 antigen; not shown: His tag
T1 sequence (looked up): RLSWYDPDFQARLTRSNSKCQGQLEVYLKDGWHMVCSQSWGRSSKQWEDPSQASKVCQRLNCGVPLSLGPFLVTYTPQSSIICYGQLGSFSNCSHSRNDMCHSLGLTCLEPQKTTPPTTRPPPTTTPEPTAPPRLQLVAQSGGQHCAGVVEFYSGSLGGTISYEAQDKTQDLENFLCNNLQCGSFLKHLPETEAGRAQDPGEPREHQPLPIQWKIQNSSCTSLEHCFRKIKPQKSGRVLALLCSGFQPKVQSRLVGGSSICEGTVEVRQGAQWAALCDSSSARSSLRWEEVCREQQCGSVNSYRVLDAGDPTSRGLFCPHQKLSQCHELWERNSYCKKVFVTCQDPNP
Nature of the assay: flow cytometry; CAR-T cells stained with soluble human CD5-His and His-APC antibody. The procedure:
(§1) CD3 and CD5 are stained with a CD3-FITC antibody (BD Biosciences, #555339) and a CD5-APC antibody (BD Biosciences, #555355) for 30 minutes at R.T. in the dark. CAR5 surface expression is detected by staining with Human CD5 Protein, HisTag (AcroBiosystems, Cat #CD5-H52H5) for 1 hour at R.T., washed and then incubated with His-APC antibody (R&D Systems, IC050A) for 30 minutes at R.T. in the dark. CAR33 expression is stained with CD33 human protein-PE (Sino Biological, 12238-HCCH_P) for 1 hour at R.T. All the staining is performed at 1:10 dilutions. DAPI (Thermo Scientific, Cat #BV-421, 1:5000) is used to stain dead cells before running by the Attune NxT Flow Cytometer (Thermo Fisher Scientific). Data is further analyzed by either using Attune NxT flow software or FlowJo software.

The target of assay [2] is T2, CD33 human protein-PE (Sino Biological, 12238-HCCH_P) (human, UniProt P20138 18-259, PE label).
T2 construct: Bought staining reagent; also called CD33 antigen
T2 sequence (P20138 18-259 limits assumed): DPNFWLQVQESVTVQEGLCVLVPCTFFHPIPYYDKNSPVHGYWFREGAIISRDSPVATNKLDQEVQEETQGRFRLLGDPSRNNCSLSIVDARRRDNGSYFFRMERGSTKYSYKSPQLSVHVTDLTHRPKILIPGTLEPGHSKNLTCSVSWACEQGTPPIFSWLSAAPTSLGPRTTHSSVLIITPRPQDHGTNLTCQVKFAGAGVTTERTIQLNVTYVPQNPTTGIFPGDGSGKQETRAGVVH
Nature of the assay: flow cytometry; CAR-T cells stained with CD33 human protein-PE. The method, then: as §1

B1: CD5 CAR CAR5-6, construct S010 (other)
chain: EIQLVQSGGGLVKPGGSVRISCAASGYTFTNYGMNWVRQAPGKGLEWMGWINTHTGEPTYADSFKGRFTFSLDDSKNTAYLQINSLRAEDTAVYFCTRRGYDWYFDVWGQGTTVTVSSGGGGSGGGGSGGGGSDIQMTQSPSSLSASVGDRVTITCRASQDINSYLSWFQQKPGKAPKTLIYRANRLESGVPSRFSGSGSGTDYTLTISSLQYEDFGIYYCQQYDESPWTFGGGTKLEIKASTTTPAPRPPTPAPTIASQPLSLRPEACRPAAGGAVHTRGLDFACDIYIWAPLAGTCGVLLLSLVITLYCKRGRKKLLYIFKQPFMRPVQTTQEEDGCSCRFPEEEEGGCELRVKFSRSADAPAYKQGQNQLYNELNLGRREEYDVLDKRRGRDPEMGGKPRRKNPQEGLYNELQKDKMAEAYSEIGMKGERRRGKGHDGLYQGLSTATKDTYDALHMQALPPR
notes: Chimeric antigen receptor on T cells
B1: the “% of T cells stained with CD5 antigen (CAR5 expression)” value in assay [1] was above 80%.

B2: CD33 CAR CAR33-2, construct S012 (other)
chain: QVQLVQSGAEVKKPGSSVKVSCKASGYTFTDYNMHWVRQAPGQGLEWIGYIYPYNGGTGYNQKFKSKATITADESTNTAYMELSSLRSEDTAVYYCARGRPAMDYWGQGTLVTVSSGGGGSGGGGSGGGGSDIQMTQSPSSLSASVGDRVTITCRASESVDNYGISFMNWFQQKPGKAPKLLIYAASNQGSGVPSRFSGSGSGTDFTLTISSLQPDDFATYYCQQSKEVPWTFGQGTKVEIKASTTTPAPRPPTPAPTIASQPLSLRPEACRPAAGGAVHTRGLDFACDIYIWAPLAGTCGVLLLSLVITLYCKRGRKKLLYIFKQPFMRPVQTTQEEDGCSCRFPEEEEGGCELRVKFSRSADAPAYKQGQNQLYNELNLGRREEYDVLDKRRGRDPEMGGKPRRKNPQEGLYNELQKDKMAEAYSEIGMKGERRRGKGHDGLYQGLSTATKDTYDALHMQALPPR
notes: as for B1
With B2, the binding result in assay [2] is “binds”.

B3: CD5 CAR CAR5-2, construct S006 (other)
chain: NIQLVQSGPELKKPGETVKISCKASGYTFTNYGMNWVKQAPGKGLRWMGWINTHTGEPTYADDFKGRFAFSLETSASTAYLQINNLKNEDTATYFCTRRGYDWYFDVWGAGTTVTVSSGGGGSGGGGSGGGGSDIKMTQSPSSMYASLGERVTITCKASQDINSYLSWFHHKPGKSPKTLIYRANRLVDGVPSRFSGSGSGQDYSLTISSLDYEDMGIYYCQQYDESPWTFGGGTKLEMKASTTTPAPRPPTPAPTIASQPLSLRPEACRPAAGGAVHTRGLDFACDIYIWAPLAGTCGVLLLSLVITLYCKRGRKKLLYIFKQPFMRPVQTTQEEDGCSCRFPEEEEGGCELRVKFSRSADAPAYKQGQNQLYNELNLGRREEYDVLDKRRGRDPEMGGKPRRKNPQEGLYNELQKDKMAEAYSEIGMKGERRRGKGHDGLYQGLSTATKDTYDALHMQALPPR
notes: as for B1
As for B3, the “% of T cells stained with CD5 antigen (CAR5 expression)” value in assay [1] is above 80%.
